First the molecules themselves.
B1: VEGF_CKP2 (designed binder)
chain: GCGETVFEQFLWCKQDSDCLAGCVCGPNGFCG
B2: VEGF_CKP9.54.59 (designed binder)
chain: GCNIMLPFWGCGPDLQCLAGCVCQYYQSCG
B3: VEGF_CKP9.54.51 (designed binder)
chain: B2 chain with P13W, L15Q, Q16F
B4: VEGF_CKP7.78 (designed binder)
chain: GCKDTTFNWGLFCKQDSDCLAGCVCQLYQSCG
B5: VEGF_CKP7.17 (designed binder)
chain: GCQDPTVNWAVYCKQDSDCLAGCVCQFYQSCG
B6: VEGF_CKP7.19 (designed binder)
chain: B5 chain with V7F, V11E, F27L
B7: VEGF_CKP7.35 (designed binder)
chain: B5 chain with V7F, V11E, F27M
B8: VEGF_CKP7.43 (designed binder)
chain: B5 chain with V7L, V11T, F27M
B9: VEGF_CKP9.54.69 (designed binder)
chain: B2 chain with P13K, D14E, Q16N
B10: VEGF_CKP7.8 (designed binder)
chain: GCKNPLFNWALYCKQDSDCLAGCVCQLFDSCG
B11: VEGF_CKP9.54.56 (designed binder)
chain: B2 chain with P13K, L15F, Q16H
B12: VEGF_CKP7.2 (designed binder)
chain: GCDDPSFDWSVYCKQDSDCLAGCVCRMYDSCG
B13: VEGF_CKP7.57 (designed binder)
chain: B12 chain with D3L, D8N, V11L, R26Q
B14: VEGF_CKP7.24 (designed binder)
chain: GCWDPTFNWALYCKQDSDCLAGCVCQMYDSCG
B15: VEGF_CKP7.54 (designed binder)
chain: B14 chain with W3L, P5R, F7L, D29N
B16: VEGF_CKP9.54.31 (designed binder)
chain: GCNIMLPFWGCGTNFLCLAGCVCQYYQSCG
B17: VEGF_CKP3 (designed binder)
chain: GCHMMYDYCKQDSDCLAGCVCEMYDACG
B18: LRP6_CKP7.89 (designed binder)
chain: GCLDPSFDWALYCKQDSDCLAGCVCQLYNSCG
B19: VEGF_CKP9.54.64 (designed binder)
chain: GCNIMLPFWGCSGDFACLAGCVCQYYQSCG
B20: VEGF_CKP9.54.76 (designed binder)
chain: GCNIMLPFWGCGWSMDCLAGCVCQYYQSCG
B21: VEGF_CKP9.54.48 (designed binder)
chain: B16 chain with G12N, T13R, N14D
B22: VEGF_CKP1 (designed binder)
chain: GCETDWYPHQIDCKQDSDCLAGCVCGPNGFCG
B23: VEGF_CKP7.50 (designed binder)
chain: GCQDPSLNWADYCKQDSDCLAGCVCQMHQSCG
B24: VEGF_CKP11 (designed binder)
chain: GCRTPWEPHDITCKQDSDCLAGCVCGPNGFCG
B25: VEGF_CKP13 (designed binder)
chain: B24 chain with R3V, E7K, D10W, T12N
B26: VEGF_CKP7.73 (designed binder)
chain: GCRDLTINWALFCKQDSDCLAGCVCQMFNSCG
B27: 9.63-4 (designed binder)
chain: GCDVMQPYWGCEMDFDCLAGCICHWYNSCGFS
B28: 9.63-20 (designed binder)
chain: B27 chain with F31Q, S32V
B29: 9.63-25 (designed binder)
chain: B27 chain with F31S, S32R
B30: 9.63-22 (designed binder)
chain: B27 chain with F31Y, S32A
B31: 9.63-67 (designed binder)
chain: B27 chain with I22V, F31G, S32I
B32: VEGF_CKP7.81 (designed binder)
chain: GCLDPTVNWALFCKQDSDCLAGCVCQHYKTCG
B33: VEGF_CKP7.88 (designed binder)
chain: GCQDPKLNWAVYCKQDSDCLAGCVCQLFNSCG
B34: VEGF_CKP9.54.44 (designed binder)
chain: B19 chain with G13R, A16D
B35: VEGF_CKP9.54.87 (designed binder)
chain: B2 chain with P13Y

Substitutions are numbered along the chain they refer to.

The assay has as its target T1, hVEGF-A (8-109) (human, UniProt P15692 214-315).
T1 construct: residue numbers count on mature VEGF-A; dimer
T1 sequence (looked up): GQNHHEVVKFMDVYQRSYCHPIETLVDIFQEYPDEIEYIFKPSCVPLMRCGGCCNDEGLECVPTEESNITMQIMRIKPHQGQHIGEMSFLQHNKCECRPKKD
The assay can be described thus: spot phage ELISA.
For B1, the ELISA worked out at 3.2 and the S/N worked out at 48.1.

Take B2: the ELISA came to 2.3 and the S/N amounted to 35.4.

For the molecule B3, the ELISA was found to be 2.5 and the S/N was determined as 44.5.

The molecule B4 registered an ELISA of 0.7 and a S/N of 11.8.

Regarding B5, the ELISA is 0.8 and the S/N stood at 13.4.

As for B6, the ELISA is 0.6 and the S/N came out at 11.1.

B7 displayed an ELISA of 0.6 and a S/N of 10.6.

Regarding B8, the ELISA came to 0.5 and the S/N was 6.3.

The molecule B9 returned an ELISA of 2.5 and a S/N of 21.7.

Take B10: the ELISA came out at 0.5 and the S/N turned out to be 7.5.

B11 came in with an ELISA of 2.3 and a S/N of 35.8.

In the case of B12, the ELISA stood at 1.2 and the S/N worked out at 21.5.

In turn, B13 had an ELISA of 1 and a S/N of 17.4.

On to B14, for which the ELISA came out at 0.8 and the S/N was determined as 13.4.

Turning to B15, the ELISA was 0.5 and the S/N is 9.3.

B16 had an ELISA of 2.3 and a S/N of 32.5.

Molecule B17 yielded an ELISA of 3.1 and a S/N of 42.9.

In turn, B18 showed an ELISA of 0.5 and a S/N of 8.1.

Turning to B19, the ELISA was 2.2 and the S/N came to 22.4.

In the case of B20, the ELISA came to 2.7 and the S/N was found to be 42.2.

Molecule B21 showed an ELISA of 2.5 and a S/N of 34.9.

B22 yielded an ELISA of 0.9 and a S/N of 16.9.

Molecule B23 came in with an ELISA of 0.8 and a S/N of 14.3.

Consider B24, for which the ELISA worked out at 4.1 and the S/N was 57.5.

Turning to B25, the ELISA amounted to 3.5 and the S/N turned out to be 56.3.

As to B26, the ELISA came out at 1.2 and the S/N was determined as 19.2.

B27: the binding result is “binds”.

With B28, the binding result was “binds”.

Consider B29, for which the binding result is listed as “binds”.

Consider B30, for which the binding result is listed as “binds”.

For the molecule B31, the binding result is recorded as “binds”.

B32 displayed an ELISA of 1.1 and a S/N of 18.6.

In turn, B33 showed an ELISA of 0.5 and a S/N of 7.7.

B34 showed an ELISA of 2.4 and a S/N of 34.4.

The molecule B35 gave an ELISA of 2.4 and a S/N of 26.1.

Source of the values: patent US20230174596A1 (published 2023).
